Results reported in patent publication US20230192853A1 (Genentech, published 2023).
Residue numbers refer to the chain shown, from its start. Names and notes keep the numbering of the source.

B1: 2C8 VHH (llama anti-CD8 VHH wt2C8) (VHH)
VHH: EVQLVESGGGLVQAGGSLRLSCAASGFTFDDYAIGWFRQAPGKGREGVLCIRIFDRHTYSADSVKGRFTISSDNAQNTVYLHMNSLKPEDTAVYYCAAGSFWACTRPEGAMDYWGKGTQVTVSS
notes: Monomeric VHH; VHHs were made both with a C-terminal His tag and tagless; also called 2C8.1-H; wild-type 2C8
B2: 2C8 with the A99G and A100fD mutations (VHH, name in Kabat numbering)
VHH: B1 VHH with A103G, A110D
B3: 18F-control VHH (18F-AlF-RESCA-modified 2C8v145) (VHH)
VHH: EVQLVESGGGLVQPGGSLRLSCAASGFTFDDYAIGWFRQAPGKGREGVACIRIFDRHTYYADSVKGRFTISSDNSKNTVYLQMNSLRAEDTATYYCAAGFFSGCTRPEGDMDYFGQGTLVQVQS
modifications: RESCA chelator (Formula (I)) carrying [18F]-aluminum fluoride; site not stated
B4: 2C8v142 VHH (VHH)
VHH: B3 VHH with A33V, F100S, S102F
notes: also called hu2C8v142
B5: 2C8v144 VHH (VHH)
VHH: B3 VHH with F100S, S102W
notes: also called hu2C8v144

Experiments:
[1] = biological target: T1, huCD8a-Fc (C-terminal hFc-tagged human CD8α receptor) (human, UniProt P01732 22-182); test: SPR
T1 construct: the whole entry is named; also called CD8α-Fc; CD8α-hFc; not shown: human Fc tag at the C-terminus

[2] = biological target: T2, one-armed single chain huCD8α/huCD8β-Fc (human, UniProt P10966 22-170); test: affinity measurement, method not named in the sentence (SPR per paragraph 284)
T2 construct: the whole entry is named; also called Human CD8αβ; CD8αβ-Fc; not shown: linker between CD8α and CD8β; not described; one polypeptide chain of an Fc (captured with an anti-HuIgG1 Fc kit); second Fc chain without fusion (one-armed format)

[3] = biological target: T3, rhesus monkey CD8 in CD8-rich tissues (in vivo) (rhesus monkey, UniProt P01732 23-235 (human entry)); test: PET imaging in rhesus monkey
T3 construct: the target was seen by PET in lymph nodes, thymus and spleen; also called rhesus CD8
Method: Imaging experiments were performed with ¹⁸F-anti-CD8 VHH in a rhesus monkey to determine whether uptake could be detected in tissues that are normally CD8-rich. A rhesus monkey (2.5 kg) was injected with 64 micrograms ¹⁸F-anti-CD8 VHH containing a 1.2 mCi radiation dose.

[4] = biological target: T4, human CD8 on cells (HPBALL cells, TALL1 cells, CD8+ T cells of human whole blood and PBMCs) (human, UniProt P01732 22-234); test: PET MIP of TALL1 tumor xenografted mice
T4 construct: also called huCD8

[5] = biological target: T5, one-armed single chain cynoCD8α/cynoCD8β-Fc (cynomolgus monkey); test: SPR, Biacore T200, 37°C, CD8αβ-Fc captured, VHH as analyte
T5 construct: the whole entry is named; also called Cyno CD8αβ; CD8αβ-Fc; not shown: linker between CD8α and CD8β; not described; one polypeptide chain of an Fc (captured with an anti-HuIgG1 Fc kit); second Fc chain without fusion (one-armed format)
Method: (§1) The binding affinity for each VHH variant to both human (a one-armed single chain huCD8α/huCD8β-Fc) and cynomolgus monkey (a one-armed single chain cynoCD8α/cynoCD8β-Fc) were determined by Surface Plasmon Resonance (SPR). SPR experiments were carried out on the Biacore T200 (GE Healthcare) at 37° C. using HBS-P+ (GE Healthcare) running buffer. 1.5 μg/mL of CD8αβ-Fc was captured using an anti-HuIgG1 Fc capture kit (GE Healthcare) and monomeric VHHs were added as the analyte in solution at a flow rate of 100 μL/min. The VHH was titrated using a dilution series from 100-0 nM. Sensorgrams were fit to a 1:1 Langmuir model to identify kinetic parameters, including KD, kₒₙ and koff.

[6] = biological target: T2, one-armed single chain huCD8α/huCD8β-Fc; test: as above
Method: as §1

T2 sequence (P10966 other isoform, or with tags, fused parts or gaps): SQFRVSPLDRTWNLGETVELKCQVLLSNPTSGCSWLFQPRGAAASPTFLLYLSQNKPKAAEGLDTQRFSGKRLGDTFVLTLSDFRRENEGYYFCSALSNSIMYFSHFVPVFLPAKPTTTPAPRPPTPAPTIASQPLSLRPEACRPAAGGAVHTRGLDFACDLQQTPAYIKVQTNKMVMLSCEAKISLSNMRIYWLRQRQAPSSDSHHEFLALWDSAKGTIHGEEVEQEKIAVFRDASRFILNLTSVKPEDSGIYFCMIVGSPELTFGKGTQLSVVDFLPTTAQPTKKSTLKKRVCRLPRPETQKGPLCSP
T5 sequence (P01732 other isoform, or with tags, fused parts or gaps): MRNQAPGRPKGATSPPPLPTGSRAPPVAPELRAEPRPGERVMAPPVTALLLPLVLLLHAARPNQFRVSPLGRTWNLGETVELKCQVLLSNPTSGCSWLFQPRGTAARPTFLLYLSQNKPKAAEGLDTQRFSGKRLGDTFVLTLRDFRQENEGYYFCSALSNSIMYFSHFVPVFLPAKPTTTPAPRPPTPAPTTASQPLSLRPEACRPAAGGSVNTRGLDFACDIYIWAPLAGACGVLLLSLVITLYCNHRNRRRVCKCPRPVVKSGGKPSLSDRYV
T4 sequence (P01732 22-234 limits assumed): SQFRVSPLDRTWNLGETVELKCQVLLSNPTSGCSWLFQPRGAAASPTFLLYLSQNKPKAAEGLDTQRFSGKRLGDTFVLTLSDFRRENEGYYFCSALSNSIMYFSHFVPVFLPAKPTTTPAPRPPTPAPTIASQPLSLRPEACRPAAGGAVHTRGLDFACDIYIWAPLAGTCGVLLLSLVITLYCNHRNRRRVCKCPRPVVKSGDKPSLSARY
T3 sequence (P01732 other isoform, or with tags, fused parts or gaps limits assumed): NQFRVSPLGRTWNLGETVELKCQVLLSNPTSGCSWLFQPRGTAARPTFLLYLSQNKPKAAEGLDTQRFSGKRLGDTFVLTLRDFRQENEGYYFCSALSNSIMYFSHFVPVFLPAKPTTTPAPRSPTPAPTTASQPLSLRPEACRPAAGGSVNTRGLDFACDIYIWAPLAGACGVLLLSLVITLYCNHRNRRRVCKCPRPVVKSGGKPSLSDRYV
T1 sequence (P01732 22-182 limits assumed): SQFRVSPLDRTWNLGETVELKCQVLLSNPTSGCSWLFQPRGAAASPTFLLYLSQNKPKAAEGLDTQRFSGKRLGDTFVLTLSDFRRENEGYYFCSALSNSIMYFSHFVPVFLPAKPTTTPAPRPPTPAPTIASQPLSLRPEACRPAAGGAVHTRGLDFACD

Row | Binder | Kd [5] | koff [5] | kon [5] | Kd [6] | koff [6] | kon [6] | further results
1 | B1 |  |  |  |  |  |  | binding result [1]: binds
2 | B2 |  |  |  |  |  |  | fold improvement of affinity against the parental clone 2C8 [2]: ~10 fold
3 | B3 |  |  |  |  |  |  | binding result [3]: no binding; binding result [4]: no binding
4 | B4 | 0.344 nM | 0.0037 s⁻¹ | 1.09e+07 M⁻¹ s⁻¹ | 0.132 nM | 0.00176 s⁻¹ | 1.34e+07 M⁻¹ s⁻¹ | 
5 | B5 | 0.137 nM | 0.0019 s⁻¹ | 1.39e+07 M⁻¹ s⁻¹ | 0.0497 nM | 0.000845 s⁻¹ | 1.7e+07 M⁻¹ s⁻¹ | 
